From patent US20080008707A1, “Denatured collagen peptides and uses thereof” (Cell-Matrix, Inc., priority 2006, published 2008) come the findings set out here.

Square brackets hold non-standard residues; d marks the D form. Ends that are not written are not given here. Hyp = O=C(O)[C@@H]1C[C@@H](O)CN1

Sequences and labels used below:
B1: synthetic peptide No. 17, GPPGPPGP (SEQ ID NO: 31) (peptide)
peptide: GPXGPXGP
modifications: hydroxyproline at the P positions marked in Tables 13 and 14; marking lost in this text
B2: synthetic peptide No. 15, GPPGPPG (SEQ ID NO: 32) (peptide)
peptide: GPXGPXG
modifications: contains hydroxyproline ('where P is hydroxyproline'); positions marked in the tables but lost in this text
B3: synthetic peptide No. 22, GPPG (SEQ ID NO: 35) (peptide)
peptide: GPPG
modifications: also: hydroxyproline marking, if any, lost
B4: synthetic peptide No. 23, GPPGPPG (SEQ ID NO: 33) (peptide)
peptide: GPPGPPG
modifications: also: hydroxyproline at marked P positions, if any, marking lost
B5: synthetic peptide No. 16, LPGPPG (SEQ ID NO: 24) (peptide)
peptide: L[Hyp]GP[Hyp]G
B6: synthetic peptide No. 8, LPGTPG (SEQ ID NO: 27) (peptide)
peptide: L[Hyp]GT[Hyp]G
B7: synthetic peptide No. 4, … (SEQ ID NO: 28) (peptide)
peptide: PGP[Hyp]GP[Hyp]GPY
B8: synthetic peptide No. 1, … (SEQ ID NO: 29) (peptide)
peptide: PGP[Hyp]GP[Hyp]GP
B9: synthetic peptide No. 13, … (SEQ ID NO: 17) (peptide)
peptide: [Hyp]GAKGLPGP
B10: synthetic peptide No. 5, … (SEQ ID NO: 20) (peptide)
peptide: LPGP[Hyp]GP[Hyp]GP
B11: synthetic peptide No. 7, … (SEQ ID NO: 36) (peptide)
peptide: F[Hyp]GP[Hyp]GPDGL[Hyp]GSMGP[Hyp]G
B12: synthetic peptide No. 10, LPGSPG (SEQ ID NO: 26) (peptide)
peptide: L[Hyp]GS[Hyp]G
B13: synthetic peptide No. 9, LPGFPGC (SEQ ID NO: 37) (peptide)
peptide: LPGFPGC
modifications: also: hydroxyproline marking, if any, lost
B14: synthetic peptide No. 19, LPGFPG (SEQ ID NO: 23) (peptide)
peptide: L[Hyp]GF[Hyp]G
B15: synthetic peptide No. 18, … (SEQ ID NO: 22) (peptide)
peptide: LPGPPGPPG
modifications: also: hydroxyproline at marked P positions, if any, marking lost
B16: synthetic peptide No. 12, … (SEQ ID NO: 2) (peptide)
peptide: [Hyp]GAKGLPGP[Hyp]GP[Hyp]GPY
B17: synthetic peptide No. 14, LPGLPG (SEQ ID NO: 25) (peptide)
peptide: L[Hyp]GL[Hyp]G
B18: synthetic peptide No. 20, … (SEQ ID NO: 21) (peptide)
peptide: LPGP[Hyp]GP[Hyp]G

The target in the first assay is HUI77, murine IgM anti-denatured-collagen monoclonal antibody. Description: competition ELISA on coated dn-collagen IV. Background: An ELISA detects its analyte on a solid surface through an enzyme-linked reagent.
In the case of B1, the % inhibition of HUI77 binding to dn-collagen IV, peptide 10 µM was determined as 7.5%; the % inhibition of HUI77 binding to dn-collagen IV, peptide 100 µM turned out to be 12%; the % inhibition of HUI77 binding to dn-collagen IV, peptide 1000 µM was found to be 44%.
B2 showed a % inhibition of HUI77 binding to dn-collagen IV, peptide 10 µM of 6%; a % inhibition of HUI77 binding to dn-collagen IV, peptide 100 µM of 7.5%; a % inhibition of HUI77 binding to dn-collagen IV, peptide 1000 µM of 77%.
B3 showed a % inhibition of HUI77 binding to dn-collagen IV, peptide 10 µM of 2.5%; a % inhibition of HUI77 binding to dn-collagen IV, peptide 100 µM of 8%; a % inhibition of HUI77 binding to dn-collagen IV, peptide 1000 µM of 3.5%.
For the molecule B4, the % inhibition of HUI77 binding to dn-collagen IV, peptide 10 µM worked out at 1.5%; the % inhibition of HUI77 binding to dn-collagen IV, peptide 100 µM came to 2%; the % inhibition of HUI77 binding to dn-collagen IV, peptide 1000 µM is 1%.
On to B5, for which the % inhibition of HUI77 binding to dn-collagen IV, peptide 10 µM was 3%; the % inhibition of HUI77 binding to dn-collagen IV, peptide 100 µM amounted to 8%; the % inhibition of HUI77 binding to dn-collagen IV, peptide 1000 µM was found to be 64%.
The molecule B6 gave a % inhibition of HUI77 binding to dn-collagen IV, peptide 10 µM of 3.5%; a % inhibition of HUI77 binding to dn-collagen IV, peptide 100 µM of 4.5%; a % inhibition of HUI77 binding to dn-collagen IV, peptide 1000 µM of 6%.
The molecule B7 came in with a % inhibition of HUI77 binding to dn-collagen IV, peptide 10 µM of 7%; a % inhibition of HUI77 binding to dn-collagen IV, peptide 100 µM of 16%; a % inhibition of HUI77 binding to dn-collagen IV, peptide 1000 µM of 86.5%.
Taken in the same sequence, the figures for B8 were 10.5%, 12.5% and 63%.
In turn, B9 returned a % inhibition of HUI77 binding to dn-collagen IV, peptide 10 µM of 8%; a % inhibition of HUI77 binding to dn-collagen IV, peptide 100 µM of 10.5%; a % inhibition of HUI77 binding to dn-collagen IV, peptide 1000 µM of 10%.
Consider B10, for which the % inhibition of HUI77 binding to dn-collagen IV, peptide 10 µM was 10%; the % inhibition of HUI77 binding to dn-collagen IV, peptide 100 µM worked out at 14%; the % inhibition of HUI77 binding to dn-collagen IV, peptide 1000 µM was 73%.
B11 displayed a % inhibition of HUI77 binding to dn-collagen IV, peptide 10 µM of 4.5%; a % inhibition of HUI77 binding to dn-collagen IV, peptide 100 µM of 9%; a % inhibition of HUI77 binding to dn-collagen IV, peptide 1000 µM of 62%.
The like results for B12 were, in that order, 8%, 10.5% and 8.5%.
For the molecule B13, the % inhibition of HUI77 binding to dn-collagen IV, peptide 10 µM came out at 7%; the % inhibition of HUI77 binding to dn-collagen IV, peptide 100 µM was 7.5%; the % inhibition of HUI77 binding to dn-collagen IV, peptide 1000 µM came to 8.5%.
The like results for B14 were, in that order, 7%, 14.5% and 75%.
B15 came in with a % inhibition of HUI77 binding to dn-collagen IV, peptide 10 µM of 6.5%; a % inhibition of HUI77 binding to dn-collagen IV, peptide 100 µM of 9%; a % inhibition of HUI77 binding to dn-collagen IV, peptide 1000 µM of 6%.
In turn, B16 returned a % inhibition of HUI77 binding to dn-collagen IV, peptide 10 µM of 7.5%; a % inhibition of HUI77 binding to dn-collagen IV, peptide 100 µM of 18%; a % inhibition of HUI77 binding to dn-collagen IV, peptide 1000 µM of 86.5%.
Take B17: the % inhibition of HUI77 binding to dn-collagen IV, peptide 10 µM turned out to be 6%; the % inhibition of HUI77 binding to dn-collagen IV, peptide 100 µM is 9.5%; the % inhibition of HUI77 binding to dn-collagen IV, peptide 1000 µM stood at 17.5%.
Take B18: the % inhibition of HUI77 binding to dn-collagen IV, peptide 10 µM stood at 6.5%; the % inhibition of HUI77 binding to dn-collagen IV, peptide 100 µM came to 18%; the % inhibition of HUI77 binding to dn-collagen IV, peptide 1000 µM was 86%.

For a further assay, the target named is D93, recombinant humanized IgG1 kappa antibody targeting denatured-collagen. As to the kind of experiment: competition ELISA on coated human dn-collagen IV.
D93, recombinant humanized IgG1 kappa antibody targeting denatured-collagen, sequence (heavy, as listed by the source, chain 1 of 2): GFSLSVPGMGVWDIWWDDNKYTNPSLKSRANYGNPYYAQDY
D93, recombinant humanized IgG1 kappa antibody targeting denatured-collagen, sequence (light, as listed by the source, chain 2 of 2): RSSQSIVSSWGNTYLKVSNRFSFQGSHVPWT
B1: the % inhibition of D93 binding to dn-collagen IV, peptide 1 µM worked out at 9.5%; the % inhibition of D93 binding to dn-collagen IV, peptide 10 µM was 21%; the % inhibition of D93 binding to dn-collagen IV, peptide 100 µM is 77%; the % inhibition of D93 binding to dn-collagen IV, peptide 1000 µM came out at 92.5%.
Consider B2, for which the % inhibition of D93 binding to dn-collagen IV, peptide 1 µM worked out at 8%; the % inhibition of D93 binding to dn-collagen IV, peptide 10 µM stood at 17%; the % inhibition of D93 binding to dn-collagen IV, peptide 100 µM was 64%; the % inhibition of D93 binding to dn-collagen IV, peptide 1000 µM was determined as 92.5%.
On to B3, for which the % inhibition of D93 binding to dn-collagen IV, peptide 1 µM is 7%; the % inhibition of D93 binding to dn-collagen IV, peptide 10 µM was found to be 6%; the % inhibition of D93 binding to dn-collagen IV, peptide 100 µM is 3.5%; the % inhibition of D93 binding to dn-collagen IV, peptide 1000 µM came out at 7.5%.
Taken in the same sequence, the figures for B4 were 5%, 4.5%, 1.5% and 6.5%.
On to B5, for which the % inhibition of D93 binding to dn-collagen IV, peptide 1 µM came out at 6.5%; the % inhibition of D93 binding to dn-collagen IV, peptide 10 µM is 12%; the % inhibition of D93 binding to dn-collagen IV, peptide 100 µM turned out to be 52.5%; the % inhibition of D93 binding to dn-collagen IV, peptide 1000 µM is 90%.
As for B6, the % inhibition of D93 binding to dn-collagen IV, peptide 1 µM was 7%; the % inhibition of D93 binding to dn-collagen IV, peptide 10 µM was 2%; the % inhibition of D93 binding to dn-collagen IV, peptide 100 µM was found to be 4.5%; the % inhibition of D93 binding to dn-collagen IV, peptide 1000 µM worked out at 24%.
For B7, the % inhibition of D93 binding to dn-collagen IV, peptide 1 µM worked out at 33.5%; the % inhibition of D93 binding to dn-collagen IV, peptide 10 µM worked out at 83%; the % inhibition of D93 binding to dn-collagen IV, peptide 100 µM worked out at 93.5%; the % inhibition of D93 binding to dn-collagen IV, peptide 1000 µM is 93.5%.
Turning to B8, the % inhibition of D93 binding to dn-collagen IV, peptide 1 µM was 11.5%; the % inhibition of D93 binding to dn-collagen IV, peptide 10 µM came out at 40.5%; the % inhibition of D93 binding to dn-collagen IV, peptide 100 µM came to 87.5%; the % inhibition of D93 binding to dn-collagen IV, peptide 1000 µM amounted to 93.5%.
For the molecule B9, the % inhibition of D93 binding to dn-collagen IV, peptide 1 µM was 11%; the % inhibition of D93 binding to dn-collagen IV, peptide 10 µM worked out at 6%; the % inhibition of D93 binding to dn-collagen IV, peptide 100 µM amounted to 4%; the % inhibition of D93 binding to dn-collagen IV, peptide 1000 µM was determined as 11.5%.
B10: the % inhibition of D93 binding to dn-collagen IV, peptide 1 µM is 12%; the % inhibition of D93 binding to dn-collagen IV, peptide 10 µM turned out to be 41.5%; the % inhibition of D93 binding to dn-collagen IV, peptide 100 µM worked out at 89%; the % inhibition of D93 binding to dn-collagen IV, peptide 1000 µM turned out to be 92.5%.
Take B11: the % inhibition of D93 binding to dn-collagen IV, peptide 1 µM was 11%; the % inhibition of D93 binding to dn-collagen IV, peptide 10 µM is 43%; the % inhibition of D93 binding to dn-collagen IV, peptide 100 µM amounted to 89.5%; the % inhibition of D93 binding to dn-collagen IV, peptide 1000 µM is 93.5%.
In the case of B12, the % inhibition of D93 binding to dn-collagen IV, peptide 1 µM was determined as 9.5%; the % inhibition of D93 binding to dn-collagen IV, peptide 10 µM is 3.5%; the % inhibition of D93 binding to dn-collagen IV, peptide 100 µM turned out to be 2.5%; the % inhibition of D93 binding to dn-collagen IV, peptide 1000 µM amounted to 13.5%.
The like results for B13 were, in that order, 8%, 3.5%, 1% and 6.5%.
Turning to B14, the % inhibition of D93 binding to dn-collagen IV, peptide 1 µM was 10.5%; the % inhibition of D93 binding to dn-collagen IV, peptide 10 µM is 6%; the % inhibition of D93 binding to dn-collagen IV, peptide 100 µM turned out to be 8%; the % inhibition of D93 binding to dn-collagen IV, peptide 1000 µM was found to be 32%.
The like results for B15 were, in that order, 6%, 5%, 3% and 17.5%.
Taken in the same sequence, the figures for B16 were 30%, 81%, 93.5% and 93.5%.
Take B17: the % inhibition of D93 binding to dn-collagen IV, peptide 1 µM stood at 8%; the % inhibition of D93 binding to dn-collagen IV, peptide 10 µM was determined as 6.5%; the % inhibition of D93 binding to dn-collagen IV, peptide 100 µM was 6.5%; the % inhibition of D93 binding to dn-collagen IV, peptide 1000 µM stood at 46.5%.
Consider B18, for which the % inhibition of D93 binding to dn-collagen IV, peptide 1 µM is 13%; the % inhibition of D93 binding to dn-collagen IV, peptide 10 µM was 35.5%; the % inhibition of D93 binding to dn-collagen IV, peptide 100 µM turned out to be 85.5%; the % inhibition of D93 binding to dn-collagen IV, peptide 1000 µM came to 92.5%.
